Results published in PMC6888414, “Two Homologous Enzymes of the GalU Family in Rhodococcus opacus 1CP—RoGalU1 and RoGalU2” (International Journal of Molecular Sciences, 2019).

B1: RoGalU2 (Rhodococcus opacus) (protein)
chain: MTDAAPHTASAFRTAVVPAAGMGTRFLPATKTVPKELLPVVDTPGIELVAGEAADSGAGRLVIVTSPGKDGVVAHFVEDLVLESKLEASGKYHLLEKVRKAPGLLEVESVIQDEPLGLGHAVGCAESVLDDDEDAIAVLLPDDLVMPRGVLETMSRVRRKRGGTVLCAIDVPKDQVSAYGVFEVETVPDATNPDVLKVIGMVEKPAIEDAPSTFAAAGRYLLDRAIFDALRRIEPGAGGELQLTDAIALLIKEGHPVHVVVHRGTRHDLGNPGGYLRAAVDFALDMEEYGPSLREWLIDRLKRTDS
notes: full length, N-terminal His10 tag (pET16bP), codon-optimized gene in E. coli BL21(DE3) pLysS, HisTrap purified; 34 kDa subunit, hexamer by SEC (188 kDa)

Columns and labels:
[1] = target: UDP-glucose pyrophosphorylase RoGalU2 of Rhodococcus opacus 1CP (Rhodococcus opacus 1CP); experiment: SEC; Superdex 200 10/300 GL, non-denaturing, 50 mM Hepes pH 7.0, 1 mM magnesium chloride; RoGalU2 at 0.2 and 2.0 mg/mL, in duplicates; mass from a calibration with standard proteins
[2] = substrate: O=c1ccn([C@@H]2O[C@H](COP(=O)(O)OP(=O)(O)OP(=O)(O)O)[C@@H](O)[C@H]2O)c(=O)[nH]1; experiment: HPLC of UDP-glucose formation, initial rates; type: biochemical, Rhodococcus opacus; details: 250 mM glucose 1-phosphate, 1 mM MgCl2, 50 mM Hepes pH 7.4, 42 °C, UTP 0.01–5 mM, Yano and Koga substrate inhibition fit
Text: (§1) HPLC of UDP-glucose formation, initial rates on RoGalU2

[3] = substrate: O=P(O)(O)O[C@H]1O[C@H](CO)[C@@H](O)[C@H](O)[C@H]1O; experiment: HPLC of UDP-glucose formation, initial rates; type: biochemical, Rhodococcus opacus; details: 1.5 mM UTP, 1 mM MgCl2, 50 mM Hepes pH 7.4, 42 °C, glucose 1-phosphate 0.05–10 mM, Michaelis-Menten fit of the low range only, non-Michaelis behaviour above 10 mM
Text: as §1

stoichiometry N [1]	Molecule	Km [2]	kcat [2]	kcat/Km [2]	Km [3]	kcat [3]	kcat/Km [3]
6	UDP-glucose pyrophosphorylase RoGalU2 of Rhodococcus opacus 1CP (enzyme)						
	B1	0.51 mM	96.2 s⁻¹	190000 M⁻¹ s⁻¹	0.9 mM	3.7 s⁻¹	4000 M⁻¹ s⁻¹
